Data published in US20250206834A1 (LANOVA MEDICINES, published 2025).

T1: human CEACAM5 protein (Sino-11077-H08H-100UG) (human, UniProt P06731 35-685)
T1 construct: Bought protein; also called soluble recombinant CEACAM5
T1 sequence (looked up): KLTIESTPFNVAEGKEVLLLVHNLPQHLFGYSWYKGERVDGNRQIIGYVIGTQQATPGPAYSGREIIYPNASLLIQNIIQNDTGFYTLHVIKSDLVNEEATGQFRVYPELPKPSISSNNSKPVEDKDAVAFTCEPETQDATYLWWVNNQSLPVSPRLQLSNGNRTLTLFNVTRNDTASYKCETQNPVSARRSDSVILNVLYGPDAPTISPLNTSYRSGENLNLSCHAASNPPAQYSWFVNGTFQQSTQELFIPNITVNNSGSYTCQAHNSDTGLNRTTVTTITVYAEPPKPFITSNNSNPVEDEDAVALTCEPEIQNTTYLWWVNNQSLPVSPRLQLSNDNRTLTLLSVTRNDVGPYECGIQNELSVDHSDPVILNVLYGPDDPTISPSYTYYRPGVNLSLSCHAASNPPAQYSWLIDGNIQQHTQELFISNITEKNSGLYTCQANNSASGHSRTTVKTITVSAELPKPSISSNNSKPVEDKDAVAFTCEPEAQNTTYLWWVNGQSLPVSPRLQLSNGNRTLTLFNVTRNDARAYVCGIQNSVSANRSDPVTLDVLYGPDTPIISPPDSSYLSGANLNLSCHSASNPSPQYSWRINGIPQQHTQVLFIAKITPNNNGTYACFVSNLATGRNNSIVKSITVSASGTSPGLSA

B1: IMMU130-263-1-3 (bispecific antibody)
heavy (part 1 of 2): EVQLVESGGGVVQPGRSLRLSCSASGFDFTTYWMSWVRQAPGKGLEWIGEIHPDSSTINYAPSLKDRFTISRDNAKNTLFLQMDSLRPEDTGVYFCASLYFGFPWFAYWGQGTPVTVSS
heavy (part 2 of 2): GGGGSGGGGSGGGGSGGGGSEVQLLESGGGLVQPGGSLRLSCAASGFTFSSSAMSWARQTPGKGFEWVSGIYSGGSTYYTESVKDRFTISRDNSKNTVYLQMNSLKPEDTAVYYCATWGTLRFGVWAEYDHWGQGTQVTVSS
light: DIQLTQSPSSLSASVGDRVTITCKASQDVGTSVAWYQQKPGKAPKLLIYWTSTRHTGVPSRFSGSGSGTDFTFTISSLQPEDIATYYCQQYSLYRSFGQGTKVEIK
notes: also called parental bispecific antibody; parental antibody; not shown: IgG1 heavy chain constant region (full IgG part, Fc of IgG1 backbone with N297A mutation); light chain constant region is not described
B2: Labetuzumab (antibody, V domains shown)
VH: B1 heavy (part 1 of 2)
VL: B1 light
notes: also called Immu130; parental CEACAM5 antibody

Key:
human 4-1BB = target: T2, human 4-1BB (human, UniProt Q07011 24-255); test: flow cytometry, CHO-K1 cells overexpressing human 4-1BB
T2 construct: whole, on cells; also called hu4-1BB; CD137

[1] = target: T1, human CEACAM5 protein …; test: ELISA, human CEACAM5 protein coated at 2 ug/mL

T2 sequence (Q07011 24-255): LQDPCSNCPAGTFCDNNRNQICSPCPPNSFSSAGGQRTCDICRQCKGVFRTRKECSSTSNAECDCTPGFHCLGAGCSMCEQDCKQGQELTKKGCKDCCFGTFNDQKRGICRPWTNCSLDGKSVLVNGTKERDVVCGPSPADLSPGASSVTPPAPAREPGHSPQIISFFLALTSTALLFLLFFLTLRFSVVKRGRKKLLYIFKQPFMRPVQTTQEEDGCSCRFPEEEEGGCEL

Row | Binder | binding result (human 4-1BB) | binding result [1]
1 | B1 | binds | –
2 | B2 | – | binds
